Changes are numbered by the printed parent chain.
B1: variant 6-13 (Fc fusion)
VHH: EVQLVESGGGLVQPGGSLRLSCAASGLTFNDYAMGWFRQAPGKEREFVAHIPRSTYSPYYADSVKGRFTISADNSKNTAYLQMNSLKPEDTAVYYCAFLVGPQGVDHGAFDVWGQGTLVTVSS
B2: variant 6-20 (Fc fusion)
VHH: EVQLVESGGGLVQPGGSLRLSCAASGSTLPYHAMGWFRQAPGKEREFVAAITWNGASTSYADSVKGRFTISADNSKNTAYLQMNSLKPEDTAVYYCARDRYYDTSASYFESETWGQGTLVTVSS
B3: variant 6-18 (Fc fusion)
VHH: EVQLVESGGGLVQPGGSLRLSCAASGLTFRNYAMGWFRQAPGKEREFIAGMMWSGGTTTYADSVKGRFTISADNSKNTAYLQMNSLKPEDTAVYYCAREGYYYDSSGYLNYFDYWGQGTLVTVSS
B4: variant 6-38 (Fc fusion)
VHH: EVQLVESGGGLVQPGGSLRLSCAASGNTFSGGFMGWFRQAPGKEREFVAVISSLSSKSYADSVKGRFTISADNSKNTAYLQMNSLKPEDTAVYYCAKVDSGYDYWGQGTLVTVSS
B5: variant 5-37 (Fc fusion)
VHH: EVQLVESGGGLVQPGGSLRLSCAASGSTFSINAMGWFRQAPGKEREFVGGISRSGATTNYADSVKGRFTISADNSKNTAYLQMNSLKPEDTAVYYCAADGVPEYSDYASGPVWGQGTLVTVSS
B6: variant 6-32 (Fc fusion)
VHH: EVQLVESGGGLVQPGGSLRLSCAASGFTLDYYDMGWFRQAPGKEREFVALISWSGGSTYYADSVKGRFTISADNSKNTAYLQMNSLKPEDTAVYYCATDFYGWGTRERDAFDIWGQGTLVTVSS
B7: variant 6-103 (Fc fusion)
VHH: EVQLVESGGGLVQPGGSLRLSCAASGRTSSPIAMGWFRQAPGKEREPVAVRWSDDYTYYADSVKGRFTISADNSKNTAYLQMNSLKPEDTAVYYCAKKLGGYYAFDIWGQGTLVTVSS
B8: variant 6-10 (Fc fusion)
VHH: EVQLVESGGGLVQPGGSLRLSCAASGSIASIHAMGWFRQAPGKEREFVAAISRSGGFGSYADSVKGRFTISADNSKNTAYLQMNSLKPEDTAVYYCARDDKYYDSSGYPAYFQHWGQGTLVTVSS
B9: variant 6-2 (Fc fusion)
VHH: EVQLVESGGGLVQPGGSLRLSCAASGFTMSSSWMGWFRQAPGKEREFVTVISGVGTSYADSVKGRFTISADNSKNTAYLQMNSLKPEDTAVYYCARGPDSSGYGFDYWGQGTLVTVSS
B10: variant 5-67 (Fc fusion)
VHH: EVQLVESGGGLVQPGGSLRLSCAASGFNVNDYAMGWFRQAPGKEREFVAGITSSVGVTNYADSVKGRFTISADNSKNTAYLQMNSLKPEDTAVYYCAADIFFVNWGRGTLVTVSS
B11: variant 5-56 (Fc fusion)
VHH: EVQLVESGGGLVQPGGSLRLSCAASGRTFSSNMGWFRQAPGKEREFVARIFGGDRTLYADSVKGRFTISADNSKNTAYLQMNSLKPEDTAVYYCADINGDWGQGTLVTVSS
B12: variant 6-76 (Fc fusion)
VHH: EVQLVESGGGLVQPGGSLRLSCAASGLAFDFDGMGWFRQAPGKEREGVAAINSGGSTYYADSVKGRFTISADNSKNTAYLQMNSLKPEDTAVYYCARFFRAHDYWGQGTLVTVSS
B13: variant 6-58 (Fc fusion)
VHH: EVQLVESGGGLVQPGGSLRLSCAASGRAVSTYAMGWFRQAPGKEREFVAAISGSENVTSYADSVKGRFTISADNSKNTAYLQMNSLKPEDTAVYYCLSVTGDTEDYGVFDTWGQGTLVTVSS
B14: variant 6-46 (Fc fusion)
VHH: EVQLVESGGGLVQPGGSLRLSCAASGLTFSAMGWFRQAPGKEREFVALIRRDGSTIYADSVKGRFTISADNSKNTAYLQMNSLKPEDTAVYYCAALGILFGYDAFDIWGQGTLVTVSS
B15: variant 6-37 (Fc fusion)
VHH: EVQLVESGGGLVQPGGSLRLSCAASGHTFSTSWMGWFRQAPGKEREFVATINSLGGTNYADSVKGRFTISADNSKNTAYLQMNSLKPEDTAVYYCARVSSGDYGMDVWGQGTLVTVSS
B16: variant 6-34 (Fc fusion)
VHH: EVQLVESGGGLVQPGGSLRLSCAASGSAFRSNAMGWFRQAPGKEREFVAHISWSSKSTYYADSVKGRFTISADNSKNTAYLQMNSLKPEDTAVYYCATYCSSTSCFDYWGQGTLVTVSS
B17: variant 6-55 (Fc fusion)
VHH: EVQLVESGGGLVQPGGSLRLSCAASGFTMSSSWMGWFRQAPGKEREFVARITSGGSTGYADSVKGRFTISADNSKNTAYLQMNSLKPEDTAVYYCASVDGYFDYWGQGTLVTVSS
B18: variant 6-52 (Fc fusion)
VHH: B17 VHH with F27D, M29Y, S30G, S32Y, F47V, R50A, G58V, S97R, G100S, Y101R
B19: variant 6-73 (Fc fusion)
VHH: EVQLVESGGGLVQPGGSLRLSCAASGHTFSGYAMGWFRQAPGKEREFVAVITREGSTYYADSVKGRFTISADNSKNTAYLQMNSLKPEDTAVYYCARLGGEGFDYWGQGTLVTVSS
B20: variant 6-78 (Fc fusion)
VHH: EVQLVESGGGLVQPGGSLRLSCAASGRTYDAMGWFRQAPGKEREFVASVTSGGYTHYADSVKGRFTISADNSKNTAYLQMNSLKPEDTAVYYCAKFGRKIVGATELDYWGQGTLVTVSS
B21: variant 6-5 (Fc fusion)
VHH: EVQLVESGGGLVQPGGSLRLSCAASGRTFTMGWFRQAPGKEREFVASTNSAGSTNYADSVNGRFTISADNSKNTAYLQMNSLKPEDTAVYYCTTVDQYFDYWGQGTLVTVSS
B22: variant 6-22 (Fc fusion)
VHH: EVQLVESGGGLVQPGGSLRLSCAASGRTFSEVVMGWFRQAPGKEREFVATIHSSGSTSYADSVKGRFTISADNSKNTAYLQMNSLKPEDTAVYYCVRVTSDYSMDSWGQGTLVTVSS
B23: variant 5-47 (Fc fusion)
VHH: EVQLVESGGGLVQPGGSLRLSCAASGFTFGSYDMGWFRQAPGKEREFVTAINWSGARTAYADSVKGRFTISADNSKNTAYLQMNSLKPEDTAVYYCAARSVYSYEYNWGQGTLVTVSS
B24: variant 6-24 (Fc fusion)
VHH: EVQLVESGGGLVQPGGSLRLSCAASGFTLDYYAMGWFRQAPGKEREFVAAINWSGDNTHYADSVKGRFTISADNSKNTAYLQMNSLKPEDTAVYYCARAPFYCTTTKCQDNYYYMDVWGQGTLVTVSS
B25: variant 5-60 (Fc fusion)
VHH: EVQLVESGGGLVQPGGSLRLSCAASGRSFSSHRMGWFRQAPGKEREFVAAIMWSGSHRNYADSVKGRFTISADNSKNTAYLQMNSLKPEDTAVYYCAAIAYEEGVYRWDWGQGTLVTVSS
B26: variant 5-32 (Fc fusion)
VHH: EVQLVESGGGLVQPGGSLRLSCAASGFTPDNYAMGWFRQAPGKEREFVAALGWSGVTTYHYYADSVKGRFTISADNSKNTAYLQMNSLKPEDTAVYYCASDESDAANWGQGTLVTVSS
B27: variant 6-60 (Fc fusion)
VHH: EVQLVESGGGLVQPGGSLRLSCAASGDTYGSYWMGWFRQAPGKEREFVATISQSGAATAYADSVKGRFTISADNSKNTAYLQMNSLKPEDTAVYYCAGLLRYSGTYYDAFDVWGQGTLVTVSS
B28: variant 2-2 (antibody, V domains shown)
VH: EVQLLESGGGLVQPGGSLRLSCAASGFTFSRHAMNWVRQAPGKGLEWVSGISGSGDETYYADSVKGRFTISRDNSKNTLYLQMNSLRAEDTAVYYCARDLPASYYDSSGYYWHNGMDVWGQGTLVTVSS
VL: DIQMTQSPSSLSASVGDRVTITCRASQTINTYLNWYQQKPGKAPKLLIYSASTLQSGVPSRFSGSGSGTDFTLTISSLQPEDFATYYCQQSYSTFTFGQGTKVEIK
B29: variant 2-4 (antibody, V domains shown)
VH: EVQLLESGGGLVQPGGSLRLSCAASGFTFSDFAMAWVRQAPGKGLEWVSAISGSGDITYYADSVKGRFTISRDNSKNTLYLQMNSLRAEDTAVYYCAREADGLHSPWHFDLWGQGTLVTVSS
VL: DIQMTQSPSSLSASVGDRVTITCRASQSIDTYLNWYQQKPGKAPKLLIYAASALASGVPSRFSGSGSGTDFTLTISSLQPEDFATYYCQQSYSAPPYTFGQGTKVEIK
B30: variant 2-5 (antibody, V domains shown)
VH: B29 VH
VL: B29 VL with D30H
B31: variant 3-10 (antibody, V domains shown)
VH: EVQLLESGGGLVQPGGSLRLSCAASGFTFRSHAMSWVRQAPGKGLEWVSSISGGGASTYYADSVKGRFTISRDNSKNTLYLQMNSLRAEDTAVYYCARVKYLTTSSGWPRPYFDNWGQGTLVTVSS
VL: DIQMTQSPSSLSASVGDRVTITCRASQSIRKYLNWYQQKPGKAPKLLIYASSTLQRGVPSRFSGSGSGTDFTLTISSLQPEDFATYYCQQSLSTPFTFGGGTKVEIK
B32: variant 2-1 (antibody, V domains shown)
VH: EVQLLESGGGLVQPGGSLRLSCAASGFTFSNYATDWVRQAPGKGLEWVSIISGSGGATYYADSVKGRFTISRDNSKNTLYLQMNSLRAEDTAVYYCAKGGYCSSDTCWWEYWLDPWGQGTLVTVSS
VL: DIQMTQSPSSLSASVGDRVTITCRASQSIHRFLNWYQQKPGKAPKLLIYAASNLHSGVPSRFSGSGSGTDFTLTISSLQPEDFATYYCQQSYGLPPTFGQGTKVEIK

What follows are binders tested against CV S-protein construct 6 trimer TP31001F (SARS-CoV-2, UniProt P0DTC2 14-1208) (assay: SPR).

Binder | Kd
B1 | 600 pM
B2 | 300 pM
B3 | 5300 pM
B4 | 500 pM
B5 | 1800 pM
B6 | 100 pM
B7 | 1000 pM
B8 | 600 pM
B9 | 1200 pM
B10 | 1000 pM
B11 | 2770 pM
B12 | 1770 pM
B13 | 1000 pM
B14 | 1900 pM
B15 | 700 pM
B16 | 700 pM
B17 | 300 pM
B18 | 1100 pM
B19 | 520 pM
B20 | 400 pM
B21 | 800 pM
B22 | 1800 pM
B23 | 700 pM
B24 | 200 pM
B25 | 800 pM
B26 | 100 pM
B27 | 100 pM

Each binder was assayed against Acro COVID S1 (S1N-C82E8) (SARS-CoV-2, UniProt P0DTC2 16-685) (assay: phage ELISA).

Binder | specificity ELISA, fold over background
B28 | 39.4 fold over background
B29 | 37.7 fold over background
B30 | 38.3 fold over background
B31 | 1.2 fold over background
B32 | 39.3 fold over background

Reference: patent publication US20210355194A1 (TWIST BIOSCIENCE, published 2021)
